Target: ZIKV sE-WT protein (Zika virus)
Experiment: SPR (BIOCORE8000), sE amine-coupled on CM5 chip, antibody as mobile phase

Substance: 2A10G6 antibody
- Kd: 9.13 nM

Reference: patent US20240173395A1
